Data as given in US20260193334A1 (ZOETIS SERVICES, published 2026).

Key:
[1] = target: T1, canine FcRn complex (FcRn-α subunit and β-microglobulin) (canine, UniProt A0A8I3PFR8 25-347, biotin labeled through BirA enzymatic reaction in Example 5); experiment: SPR (Biacore), FcRn amine-coupled on CM5, IgG as analyte, pH 7.2, 15 C
[2] = target: T1, canine FcRn complex (FcRn-α subunit and …); experiment: SPR (Biacore), FcRn amine-coupled on CM5, IgG as analyte, pH 6, 15 C

T1 sequence (A0A8I3PFR8 entry or part of it, one chain of several): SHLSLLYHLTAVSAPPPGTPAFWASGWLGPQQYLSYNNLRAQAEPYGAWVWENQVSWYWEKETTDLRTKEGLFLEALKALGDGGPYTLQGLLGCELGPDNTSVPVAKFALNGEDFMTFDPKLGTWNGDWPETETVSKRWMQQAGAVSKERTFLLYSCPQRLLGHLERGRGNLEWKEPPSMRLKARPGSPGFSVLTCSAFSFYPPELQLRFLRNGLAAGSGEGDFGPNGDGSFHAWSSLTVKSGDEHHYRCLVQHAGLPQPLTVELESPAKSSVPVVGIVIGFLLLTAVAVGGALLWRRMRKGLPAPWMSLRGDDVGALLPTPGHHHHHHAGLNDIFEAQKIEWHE

Kd [1] [nM]	Kd [2] [nM]	Binder
11	18.8	anti-TGFβ antibody ZTS-4155, canine IgGB (65), N434M (antibody) chain 1: EVQLVQSGAEVKKPGASVKVSCKTSGYTFITYWMNWVRQAPGAGLDWMGQIFPASGSTNYNEMFEGRVTLTADTSTSTAYMELSSLRAGDIAVYYCARGDGNYALDAMDYWGQGTLVTVSSASTTAPSVFPLAPSCGSTSGSTVALACLVSGYFPEPVTVSWNSGSLTSGVHTFPSVLQSSGLYSLSSMVTVPSSRWPSETFTCNVAHPASKTKVDKPVPKRENGRVPRPPDCPKCPAPEMLGGPSVFIFPPKPKDTLLIARTPEVTCVVVDLDPEDPEVQISWFVDGKQMQTAKTQPREEQFNGTYRVVSVLPIGHQDWLKGKQFTCKVNNKALPSPIERTISKARGQAHQPSVYVLPPSREELSKNTVSLTCLIKDFFPPDIDVEWQSNGQQEPESKYRTTPPQLDEDGSYFLYSKLSVDKSRWQRGDTFICAVMHEALHMHYTQESLSHSPGK chain 2: DIVMTQTPPSLSVSPRETASISCRASESVDSYGNSFMHWYLQKPGQSPQLLIYLASNLESGVSDRFSGSGSGTDFTLRISRVEANDTGVYYCQQNNEDPLTFGQGTKLEIKRNDAQPAVYLFQPSPDQLHTGSASVVCLLNSFYPKDINVKWKVDGVIQDTGIQESVTEQDKDSTYSLSSTLTMSSTEYLSHELYSCEITHKSLPSTLIKSFQRSEC
6.19	13.6	anti-TGFβ antibody ZTS-4155, canine IgGB (65), N434V (antibody) chain 1: EVQLVQSGAEVKKPGASVKVSCKTSGYTFITYWMNWVRQAPGAGLDWMGQIFPASGSTNYNEMFEGRVTLTADTSTSTAYMELSSLRAGDIAVYYCARGDGNYALDAMDYWGQGTLVTVSSASTTAPSVFPLAPSCGSTSGSTVALACLVSGYFPEPVTVSWNSGSLTSGVHTFPSVLQSSGLYSLSSMVTVPSSRWPSETFTCNVAHPASKTKVDKPVPKRENGRVPRPPDCPKCPAPEMLGGPSVFIFPPKPKDTLLIARTPEVTCVVVDLDPEDPEVQISWFVDGKQMQTAKTQPREEQFNGTYRVVSVLPIGHQDWLKGKQFTCKVNNKALPSPIERTISKARGQAHQPSVYVLPPSREELSKNTVSLTCLIKDFFPPDIDVEWQSNGQQEPESKYRTTPPQLDEDGSYFLYSKLSVDKSRWQRGDTFICAVMHEALHVHYTQESLSHSPGK chain 2: DIVMTQTPPSLSVSPRETASISCRASESVDSYGNSFMHWYLQKPGQSPQLLIYLASNLESGVSDRFSGSGSGTDFTLRISRVEANDTGVYYCQQNNEDPLTFGQGTKLEIKRNDAQPAVYLFQPSPDQLHTGSASVVCLLNSFYPKDINVKWKVDGVIQDTGIQESVTEQDKDSTYSLSSTLTMSSTEYLSHELYSCEITHKSLPSTLIKSFQRSEC
50.2	11.8	anti-TGFβ antibody ZTS-4155, canine IgGB (65), N434Q (antibody) chain 1: EVQLVQSGAEVKKPGASVKVSCKTSGYTFITYWMNWVRQAPGAGLDWMGQIFPASGSTNYNEMFEGRVTLTADTSTSTAYMELSSLRAGDIAVYYCARGDGNYALDAMDYWGQGTLVTVSSASTTAPSVFPLAPSCGSTSGSTVALACLVSGYFPEPVTVSWNSGSLTSGVHTFPSVLQSSGLYSLSSMVTVPSSRWPSETFTCNVAHPASKTKVDKPVPKRENGRVPRPPDCPKCPAPEMLGGPSVFIFPPKPKDTLLIARTPEVTCVVVDLDPEDPEVQISWFVDGKQMQTAKTQPREEQFNGTYRVVSVLPIGHQDWLKGKQFTCKVNNKALPSPIERTISKARGQAHQPSVYVLPPSREELSKNTVSLTCLIKDFFPPDIDVEWQSNGQQEPESKYRTTPPQLDEDGSYFLYSKLSVDKSRWQRGDTFICAVMHEALHQHYTQESLSHSPGK chain 2: DIVMTQTPPSLSVSPRETASISCRASESVDSYGNSFMHWYLQKPGQSPQLLIYLASNLESGVSDRFSGSGSGTDFTLRISRVEANDTGVYYCQQNNEDPLTFGQGTKLEIKRNDAQPAVYLFQPSPDQLHTGSASVVCLLNSFYPKDINVKWKVDGVIQDTGIQESVTEQDKDSTYSLSSTLTMSSTEYLSHELYSCEITHKSLPSTLIKSFQRSEC
270		anti-TGFβ antibody ZTS-4155, canine IgGB (65), N434C (antibody) chain 1: EVQLVQSGAEVKKPGASVKVSCKTSGYTFITYWMNWVRQAPGAGLDWMGQIFPASGSTNYNEMFEGRVTLTADTSTSTAYMELSSLRAGDIAVYYCARGDGNYALDAMDYWGQGTLVTVSSASTTAPSVFPLAPSCGSTSGSTVALACLVSGYFPEPVTVSWNSGSLTSGVHTFPSVLQSSGLYSLSSMVTVPSSRWPSETFTCNVAHPASKTKVDKPVPKRENGRVPRPPDCPKCPAPEMLGGPSVFIFPPKPKDTLLIARTPEVTCVVVDLDPEDPEVQISWFVDGKQMQTAKTQPREEQFNGTYRVVSVLPIGHQDWLKGKQFTCKVNNKALPSPIERTISKARGQAHQPSVYVLPPSREELSKNTVSLTCLIKDFFPPDIDVEWQSNGQQEPESKYRTTPPQLDEDGSYFLYSKLSVDKSRWQRGDTFICAVMHEALHCHYTQESLSHSPGK chain 2: DIVMTQTPPSLSVSPRETASISCRASESVDSYGNSFMHWYLQKPGQSPQLLIYLASNLESGVSDRFSGSGSGTDFTLRISRVEANDTGVYYCQQNNEDPLTFGQGTKLEIKRNDAQPAVYLFQPSPDQLHTGSASVVCLLNSFYPKDINVKWKVDGVIQDTGIQESVTEQDKDSTYSLSSTLTMSSTEYLSHELYSCEITHKSLPSTLIKSFQRSEC
162	2.11	anti-TGFβ antibody ZTS-4155, canine IgGB (65), N434W (antibody) chain 1: EVQLVQSGAEVKKPGASVKVSCKTSGYTFITYWMNWVRQAPGAGLDWMGQIFPASGSTNYNEMFEGRVTLTADTSTSTAYMELSSLRAGDIAVYYCARGDGNYALDAMDYWGQGTLVTVSSASTTAPSVFPLAPSCGSTSGSTVALACLVSGYFPEPVTVSWNSGSLTSGVHTFPSVLQSSGLYSLSSMVTVPSSRWPSETFTCNVAHPASKTKVDKPVPKRENGRVPRPPDCPKCPAPEMLGGPSVFIFPPKPKDTLLIARTPEVTCVVVDLDPEDPEVQISWFVDGKQMQTAKTQPREEQFNGTYRVVSVLPIGHQDWLKGKQFTCKVNNKALPSPIERTISKARGQAHQPSVYVLPPSREELSKNTVSLTCLIKDFFPPDIDVEWQSNGQQEPESKYRTTPPQLDEDGSYFLYSKLSVDKSRWQRGDTFICAVMHEALHWHYTQESLSHSPGK chain 2: DIVMTQTPPSLSVSPRETASISCRASESVDSYGNSFMHWYLQKPGQSPQLLIYLASNLESGVSDRFSGSGSGTDFTLRISRVEANDTGVYYCQQNNEDPLTFGQGTKLEIKRNDAQPAVYLFQPSPDQLHTGSASVVCLLNSFYPKDINVKWKVDGVIQDTGIQESVTEQDKDSTYSLSSTLTMSSTEYLSHELYSCEITHKSLPSTLIKSFQRSEC
406	16.6	anti-TGFβ antibody ZTS-4155, canine IgGB (65), N434T (antibody) chain 1: EVQLVQSGAEVKKPGASVKVSCKTSGYTFITYWMNWVRQAPGAGLDWMGQIFPASGSTNYNEMFEGRVTLTADTSTSTAYMELSSLRAGDIAVYYCARGDGNYALDAMDYWGQGTLVTVSSASTTAPSVFPLAPSCGSTSGSTVALACLVSGYFPEPVTVSWNSGSLTSGVHTFPSVLQSSGLYSLSSMVTVPSSRWPSETFTCNVAHPASKTKVDKPVPKRENGRVPRPPDCPKCPAPEMLGGPSVFIFPPKPKDTLLIARTPEVTCVVVDLDPEDPEVQISWFVDGKQMQTAKTQPREEQFNGTYRVVSVLPIGHQDWLKGKQFTCKVNNKALPSPIERTISKARGQAHQPSVYVLPPSREELSKNTVSLTCLIKDFFPPDIDVEWQSNGQQEPESKYRTTPPQLDEDGSYFLYSKLSVDKSRWQRGDTFICAVMHEALHTHYTQESLSHSPGK chain 2: DIVMTQTPPSLSVSPRETASISCRASESVDSYGNSFMHWYLQKPGQSPQLLIYLASNLESGVSDRFSGSGSGTDFTLRISRVEANDTGVYYCQQNNEDPLTFGQGTKLEIKRNDAQPAVYLFQPSPDQLHTGSASVVCLLNSFYPKDINVKWKVDGVIQDTGIQESVTEQDKDSTYSLSSTLTMSSTEYLSHELYSCEITHKSLPSTLIKSFQRSEC
285	2.7	anti-TGFβ antibody ZTS-4155, canine IgGB (65), N434R (antibody) chain 1: EVQLVQSGAEVKKPGASVKVSCKTSGYTFITYWMNWVRQAPGAGLDWMGQIFPASGSTNYNEMFEGRVTLTADTSTSTAYMELSSLRAGDIAVYYCARGDGNYALDAMDYWGQGTLVTVSSASTTAPSVFPLAPSCGSTSGSTVALACLVSGYFPEPVTVSWNSGSLTSGVHTFPSVLQSSGLYSLSSMVTVPSSRWPSETFTCNVAHPASKTKVDKPVPKRENGRVPRPPDCPKCPAPEMLGGPSVFIFPPKPKDTLLIARTPEVTCVVVDLDPEDPEVQISWFVDGKQMQTAKTQPREEQFNGTYRVVSVLPIGHQDWLKGKQFTCKVNNKALPSPIERTISKARGQAHQPSVYVLPPSREELSKNTVSLTCLIKDFFPPDIDVEWQSNGQQEPESKYRTTPPQLDEDGSYFLYSKLSVDKSRWQRGDTFICAVMHEALHRHYTQESLSHSPGK chain 2: DIVMTQTPPSLSVSPRETASISCRASESVDSYGNSFMHWYLQKPGQSPQLLIYLASNLESGVSDRFSGSGSGTDFTLRISRVEANDTGVYYCQQNNEDPLTFGQGTKLEIKRNDAQPAVYLFQPSPDQLHTGSASVVCLLNSFYPKDINVKWKVDGVIQDTGIQESVTEQDKDSTYSLSSTLTMSSTEYLSHELYSCEITHKSLPSTLIKSFQRSEC
38	4.8	anti-TGFβ antibody ZTS-4155, canine IgGB (65), N434H (antibody, See m9; also called mAb3 N434H) heavy: EVQLVQSGAEVKKPGASVKVSCKTSGYTFITYWMNWVRQAPGAGLDWMGQIFPASGSTNYNEMFEGRVTLTADTSTSTAYMELSSLRAGDIAVYYCARGDGNYALDAMDYWGQGTLVTASTTAPSVFPLAPSCGSTSGSTVALACLVSGYFPEPVTVSWNSGSLTSGVHTFPSVLQSSGLYSLSSMVTVPSSRWPSETFTCNVAHPASKTKVDKPVPKRENGRVPRPPDCPKCPAPEMLGGPSVFIFPPKPKDTLLIARTPEVTCVVVDLDPEDPEVQISWFVDGKQMQTAKTQPREEQFNGTYRVVSVLPIGHQDWLKGKQFTCKVNNKALPSPIERTISKARGQAHQPSVYVLPPSREELSKNTVSLTCLIKDFFPPDIDVEWQSNGQQEPESKYRTTPPQLDEDGSYFLYSKLSVDKSRWQRGDTFICAVMHEALHHHYTQESLSHSPGK VL: DIVMTQTPPSLSVSPRETASISCRASESVDSYGNSFMHWYLQKPGQSPQLLIYLASNLESGVSDRFSGSGSGTDFTLRISRVEANDTGVYYCQQNNEDPLTFGQ
